# PMC3164629
# How the values were obtained:
# recombinant soluble CD4 = recombinant soluble CD4 (UniProt P01730); assay: SPR
# human mAb 4E10 (human) = assay: SPR
# human mAb 4E10 (human), sequence (light, as listed by the source, chain 2 of 2, other chains not shown): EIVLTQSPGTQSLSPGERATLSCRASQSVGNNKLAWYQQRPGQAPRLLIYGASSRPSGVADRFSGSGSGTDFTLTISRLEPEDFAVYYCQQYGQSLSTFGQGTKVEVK
Substance,Kd (recombinant soluble CD4) [nM],fold enhancement of Kd against WT glycosylated CON-S gp140 (human mAb 4E10 (human)) [fold]
"CON-S gp140CFI Env, natively deglycosylated with PNGase F 500 U per µg",9.4,7
"HIV-1 JRFL gp140CF Env, WT glycosylated (domain or fragment)",5.7,–
"HIV-1 JRFL gp140CF Env, natively deglycosylated with PNGase F 500 U per µg (domain or fragment)",35.3,–
"group M consensus gp140 Env, CON-S gp140CFI, WT glycosylated",7.4,–
